Measurements as given in patent publication US20170233497A1.
Like-named read-outs stand apart in the source and are kept apart here.

Legend:
[1] = target: recombinant extracellular domain of EGFR (UniProt P00533); experiment: EGFR-coat/anti-7D8-idiotype sandwich ELISA; mixture after 25 mM 2-MEA, 90 min, 37 °C; axis = total antibody of the mixture
[2] = target: mouse FcRn (neonatal Fc receptor), biotinylated (mouse) (UniProt Q61559); experiment: FcRn ELISA at pH 6.0
[3] = target: recombinant extracellular domain of EGFR (UniProt P00533); experiment: EGFR-coat/anti-7D8-idiotype sandwich ELISA; mixture after 25 mM 2-MEA, 90 min, 37 °C; axis = total antibody of the mixture; remark: listed apart in the source

Substance | EC50 (read off the curve) [1] | fold higher binding efficiency to mouse FcRn compared to human FcRn [2] | EC50 (read off the curve) [3]
IgG1-2F8-F405L+IgG4-7D8 (bispecific antibody) | 0.3 µg/mL |  | 
IgG1-2F8-F405L+IgG4-7D8-CPPC (bispecific antibody) | 0.3 µg/mL |  | 
IgG1-2F8-ITL (antibody) |  | 3 fold | 
IgG4-2F8 x IgG4-7D8 (bispecific antibody) | 0.4 µg/mL |  | 0.3 µg/mL
IgG4-2F8+IgG4-7D8 (deglyc) (bispecific antibody) |  |  | 0.4 µg/mL
IgG4-7D8-CPPC x IgG4-2F8 (bispecific antibody) | 0.3 µg/mL |  | 
bispecific IgG1 generated from IgG1-2F8-ITL and IgG1-7D8-K409R (bispecific antibody) |  | 3 fold | 
